T1: Lsb1, P53281
T1 sequence (P53281 45-122, looked up): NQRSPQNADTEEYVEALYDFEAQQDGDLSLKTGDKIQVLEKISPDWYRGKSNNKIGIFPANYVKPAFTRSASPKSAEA

T2: Bzz1-2, P38822
T2 sequence (P38822 568-633, looked up): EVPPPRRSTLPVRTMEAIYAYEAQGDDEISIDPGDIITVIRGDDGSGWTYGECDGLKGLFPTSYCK

T3: Abp1, P15891
T3 sequence (P15891 535-592, looked up): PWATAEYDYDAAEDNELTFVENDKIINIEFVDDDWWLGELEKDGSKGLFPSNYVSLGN

T4: Cdc25, P04821
T4 sequence (P04821 50-136, looked up): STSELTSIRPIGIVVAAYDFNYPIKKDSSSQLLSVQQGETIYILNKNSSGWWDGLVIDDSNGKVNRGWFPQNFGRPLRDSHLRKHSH

T5: Bbc1, P47068
T5 sequence (P47068 1-78, looked up): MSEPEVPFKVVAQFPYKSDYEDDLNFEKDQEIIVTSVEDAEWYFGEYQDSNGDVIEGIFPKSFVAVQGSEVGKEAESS

T6: Cyk3, Q07533
T6 sequence (Q07533 1-83, looked up): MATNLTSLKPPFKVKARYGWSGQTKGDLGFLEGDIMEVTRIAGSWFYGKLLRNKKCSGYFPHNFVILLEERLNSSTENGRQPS

T7: Hse1, P38753
T7 sequence (P38753 208-285, looked up): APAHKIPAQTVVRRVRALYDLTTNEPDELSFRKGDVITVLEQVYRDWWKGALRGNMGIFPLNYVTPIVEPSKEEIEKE

T8: Bud14, P27637
T8 sequence (P27637 247-328, looked up): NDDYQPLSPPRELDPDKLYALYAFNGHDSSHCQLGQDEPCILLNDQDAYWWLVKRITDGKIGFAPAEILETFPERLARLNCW

T9: Pex13, P80667
T9 sequence (P80667 295-386, looked up): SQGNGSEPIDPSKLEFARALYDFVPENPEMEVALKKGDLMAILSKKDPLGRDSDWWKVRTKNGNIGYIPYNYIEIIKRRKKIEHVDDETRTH

T10: Sla1-2, P32790
T10 sequence (P32790 60-140, looked up): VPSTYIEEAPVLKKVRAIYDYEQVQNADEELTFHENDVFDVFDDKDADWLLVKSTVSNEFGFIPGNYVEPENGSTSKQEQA

T11: Fus1, P11710
T11 sequence (P11710 432-512, looked up): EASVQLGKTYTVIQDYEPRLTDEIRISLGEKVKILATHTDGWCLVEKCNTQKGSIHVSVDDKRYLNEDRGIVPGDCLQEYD

T12: Lsb3, P43603
T12 sequence (P43603 385-451, looked up): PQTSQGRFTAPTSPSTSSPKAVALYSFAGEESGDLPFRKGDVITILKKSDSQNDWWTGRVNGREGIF

T13: Boi2, P39969
T13 sequence (P39969 32-116, looked up): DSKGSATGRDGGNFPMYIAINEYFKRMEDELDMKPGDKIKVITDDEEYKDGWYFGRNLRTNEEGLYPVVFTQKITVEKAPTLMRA

T14: Lsb4, P32793
T14 sequence (P32793 402-468, looked up): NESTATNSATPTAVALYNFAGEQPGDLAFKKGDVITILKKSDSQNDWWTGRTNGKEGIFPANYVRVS

T15: Sla1-3, P32790
T15 sequence (P32790 344-424, looked up): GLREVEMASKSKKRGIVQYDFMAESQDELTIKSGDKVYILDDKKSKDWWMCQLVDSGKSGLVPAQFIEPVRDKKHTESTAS

T16: Pin3, Q06449
T16 sequence (Q06449 53-122, looked up): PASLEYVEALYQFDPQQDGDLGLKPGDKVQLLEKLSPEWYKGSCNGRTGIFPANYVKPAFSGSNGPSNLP

T17: Hof1, Q05080
T17 sequence (Q05080 590-669, looked up): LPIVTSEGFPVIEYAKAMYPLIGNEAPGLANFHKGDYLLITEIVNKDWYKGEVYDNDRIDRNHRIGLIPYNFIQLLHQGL

T18: Boi1, P38041
T18 sequence (P38041 1-86, looked up): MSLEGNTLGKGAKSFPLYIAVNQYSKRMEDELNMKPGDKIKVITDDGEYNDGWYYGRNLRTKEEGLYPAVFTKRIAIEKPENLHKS

T19: Myo5, Q04439
T19 sequence (Q04439 1072-1160, looked up): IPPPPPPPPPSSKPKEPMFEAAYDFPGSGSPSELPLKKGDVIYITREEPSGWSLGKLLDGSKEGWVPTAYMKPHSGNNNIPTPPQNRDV

T20: Nbp2, Q12163
T20 sequence (Q12163 103-180, looked up): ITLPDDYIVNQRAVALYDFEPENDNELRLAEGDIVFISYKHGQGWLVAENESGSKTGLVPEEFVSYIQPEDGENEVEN

T21: Bzz1-1, P38822
T21 sequence (P38822 478-572, looked up): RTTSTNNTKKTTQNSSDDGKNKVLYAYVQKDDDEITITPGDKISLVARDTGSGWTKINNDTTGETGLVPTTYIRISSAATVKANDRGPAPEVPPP

B1: unnamed (peptide)
chain: GERSRPLVISILSSA
B2: unnamed (peptide)
chain: RLSFFFPLDPAYIRN
B3: unnamed (peptide)
chain: LTRRFPFLFPFDTRM
B4: unnamed (peptide)
chain: HGKRRAPLLLAKLDV

Legend:
Experiment in all cases: SPOT array
[1] = target: T1, Lsb1, P53281; conditions: median of control spots 388
[2] = target: T2, Bzz1-2, P38822; conditions: median of control spots 4538
[3] = target: T3, Abp1, P15891; conditions: median of control spots 935
[4] = target: T4, Cdc25, P04821; conditions: median of control spots 969
[5] = target: T5, Bbc1, P47068; conditions: median of control spots 796
[6] = target: T6, Cyk3, Q07533; conditions: median of control spots 1451
[7] = target: Bem1-1, P29366; conditions: median of control spots 4282
Bem1-1, P29366, sequence (P29366 55-141): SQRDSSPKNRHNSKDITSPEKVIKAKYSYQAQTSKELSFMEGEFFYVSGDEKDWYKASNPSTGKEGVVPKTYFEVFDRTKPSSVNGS

[8] = target: Sho1, P40073; conditions: median of control spots 1148
Sho1, P40073, sequence (P40073 287-367): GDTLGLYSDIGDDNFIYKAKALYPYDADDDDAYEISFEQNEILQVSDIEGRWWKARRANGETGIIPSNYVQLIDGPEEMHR

[9] = target: T7, Hse1, P38753; conditions: median of control spots 1727
[10] = target: T8, Bud14, P27637; conditions: median of control spots 956
[11] = target: Bem1-2, P29366; conditions: median of control spots 4347
Bem1-2, P29366, sequence (P29366 139-227): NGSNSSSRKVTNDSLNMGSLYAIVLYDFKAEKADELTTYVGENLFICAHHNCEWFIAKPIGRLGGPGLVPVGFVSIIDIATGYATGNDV

[12] = target: T9, Pex13, P80667; conditions: median of control spots 1341
[13] = target: T10, Sla1-2, P32790; conditions: median of control spots 712
[14] = target: Rvs167, P39743; conditions: median of control spots 2707
Rvs167, P39743, sequence (P39743 419-482): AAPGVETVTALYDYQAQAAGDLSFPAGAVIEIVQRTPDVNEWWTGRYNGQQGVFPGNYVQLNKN

[15] = target: Myo3, P36006; conditions: median of control spots 468
[16] = target: T11, Fus1, P11710; conditions: median of control spots 1200
[17] = target: T12, Lsb3, P43603; conditions: median of control spots 406
[18] = target: T13, Boi2, P39969; conditions: median of control spots 1161
[19] = target: T14, Lsb4, P32793; conditions: median of control spots 397
[20] = target: T15, Sla1-3, P32790; conditions: median of control spots 5475
[21] = target: T16, Pin3, Q06449; conditions: median of control spots 2171
[22] = target: T17, Hof1, Q05080; conditions: median of control spots 4086
[23] = target: T18, Boi1, P38041; conditions: median of control spots 1162
[24] = target: GST; conditions: median of control spots 978
[25] = target: T19, Myo5, Q04439; conditions: median of control spots 471
[26] = target: T20, Nbp2, Q12163; conditions: median of control spots 357
[27] = target: T21, Bzz1-1, P38822; conditions: median of control spots 4446

Binder	SPOT intensity [1]	SPOT intensity [2]	SPOT intensity [3]	SPOT intensity [4]	SPOT intensity [5]	SPOT intensity [6]	SPOT intensity [7]	SPOT intensity [8]	SPOT intensity [9]	SPOT intensity [10]	SPOT intensity [11]	SPOT intensity [12]	SPOT intensity [13]	SPOT intensity [14]	SPOT intensity [15]	SPOT intensity [16]	SPOT intensity [17]	SPOT intensity [18]	SPOT intensity [19]	SPOT intensity [20]	further results
B1	0	1	16	16	0	0	0	38	0	14	0	39	1	0	5	3	0	0	4	0	SPOT intensity [21]: 26; SPOT intensity [22]: 0; SPOT intensity [23]: 2; SPOT intensity [24]: 0; SPOT intensity [25]: 0; SPOT intensity [26]: 2; SPOT intensity [27]: 3
B2	0	3	28	28	12	1	0	68	91	12	43	21	0	0	4	159	0	0	0	113	SPOT intensity [21]: 13; SPOT intensity [22]: 48; SPOT intensity [23]: 6; SPOT intensity [24]: 1; SPOT intensity [25]: 0; SPOT intensity [26]: 21; SPOT intensity [27]: 0
B3	0	3	18	21	69	3	1	57	126	21	61	16	1	0	4	100	0	0	4	129	SPOT intensity [21]: 18; SPOT intensity [22]: 116; SPOT intensity [23]: 6; SPOT intensity [24]: 0; SPOT intensity [25]: 0; SPOT intensity [26]: 16; SPOT intensity [27]: 3
B4	0	1	79	7	17	0	0	85	0	14	0	5	0	0	5	0	0	0	4	1	SPOT intensity [21]: 9; SPOT intensity [22]: 0; SPOT intensity [23]: 0; SPOT intensity [24]: 1; SPOT intensity [25]: 0; SPOT intensity [26]: 1; SPOT intensity [27]: 0
